Measurements taken from IntAct's records for PubMed 26900326.

B1: Molecular chaperone MKKS (Homo sapiens), Q9NPJ1 (parent)
chain: MSRLEAKKPSLCKSEPLTTERVRTTLSVLKRIVTSCYGPSGRLKQLHNGFGGYVCTTSQSSALLSHLLVTHPILKILTASIQNHVSSFSDCGLFTAILCCNLIENVQRLGLTPTTVIRLNKHLLSLCISYLKSETCGCRIPVDFSSTQILLCLVRSILTSKPACMLTRKETEHVSALILRAFLLTIPENAEGHIILGKSLIVPLKGQRVIDSTVLPGILIEMSEVQLMRLLPIKKSTALKVALFCTTLSGDTSDTGEGTVVVSYGVSLENAVLDQLLNLGRQLISDHVDLVLCQKVIHPSLKQFLNMHRIIAIDRIGVTLMEPLTKMTGTQPIGSLGSICPNSYGSVKDVCTAKFGSKHFFHLIPNEATICSLLLCNRNDTAWDELKLTCQTALHVLQLTLKEPWALLGGGCTETHLAAYIRHKTHNDPESILKDDECTQTELQLIAEAFCSALESVVGSLEHDGGEILTDMKYGHLWSVQADSPCVANWPDLLSQCGCGLYNSQEELNWSFLRSTRRPFVPQSCLPHEAVGSASNLTLDCLTAKLSGLQVAVETANLILDLSYVIEDKN
partner: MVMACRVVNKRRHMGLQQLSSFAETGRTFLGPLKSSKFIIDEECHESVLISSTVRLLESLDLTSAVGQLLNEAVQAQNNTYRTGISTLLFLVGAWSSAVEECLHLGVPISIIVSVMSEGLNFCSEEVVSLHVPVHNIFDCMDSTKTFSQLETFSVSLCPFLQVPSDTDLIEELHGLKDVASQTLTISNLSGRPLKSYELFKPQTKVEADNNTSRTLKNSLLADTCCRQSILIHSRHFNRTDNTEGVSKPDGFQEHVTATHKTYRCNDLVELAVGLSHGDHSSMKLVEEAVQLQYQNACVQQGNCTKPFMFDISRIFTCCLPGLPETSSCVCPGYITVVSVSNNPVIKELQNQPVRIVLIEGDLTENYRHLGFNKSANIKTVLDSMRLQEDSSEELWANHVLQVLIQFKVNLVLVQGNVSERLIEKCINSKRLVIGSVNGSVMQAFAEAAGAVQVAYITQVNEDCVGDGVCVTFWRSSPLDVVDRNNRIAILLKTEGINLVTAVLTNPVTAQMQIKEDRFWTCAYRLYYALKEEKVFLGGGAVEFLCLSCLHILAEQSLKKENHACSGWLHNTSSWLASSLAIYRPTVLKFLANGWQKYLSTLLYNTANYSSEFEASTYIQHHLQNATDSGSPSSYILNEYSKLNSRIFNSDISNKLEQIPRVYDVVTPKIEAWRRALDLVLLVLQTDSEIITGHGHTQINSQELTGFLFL

Variants of: B1
Conditions: with bbs12_human BBS12, Q6ZW61

effect of a mutation on the interaction | Variant
decreasing interaction strength | MSRLEAKKPSLCKSEPLTTERVRTTLSVLKRIVTSCYGPSGRLKQLHNGFGGYVCTTSQSSALLSHLLVTHPILKILTASIQNHVSSFSDCGLFTAILCCNLIENVQRLGLTPTTVIRLNKHLLSLCISYLKSETCGCRIPVDFSSTQILLCLVRSILTSKPACMLTRKETEHVSALILRAFLLTIPENAEGHIILGKSLIVPLKGQRVIDSTVLPGILIEMSEVQLMRLLPIKKSTALKVALFCTTLSGDTSDTGEGTVVVSYGVSLENAVLDQLPNLGRQLISDHVDLVLCQKVIHPSLKQFLNMHRIIAIDRIGVTLMEPLTKMTGTQPIGSLGSICPNSYGSVKDVCTAKFGSKHFFHLIPNEATICSLLLCNRNDTAWDELKLTCQTALHVLQLTLKEPWALLGGGCTETHLAAYIRHKTHNDPESILKDDECTQTELQLIAEAFCSALESVVGSLEHDGGEILTDMKYGHLWSVQADSPCVANWPDLLSQCGCGLYNSQEELNWSFLRSTRRPFVPQSCLPHEAVGSASNLTLDCLTAKLSGLQVAVETANLILDLSYVIEDKN [L277P]
disrupting interaction strength | MSRLEAKKPSLCKSEPLTTERVRTTLSVLKRIVTSCYGPSGRLKQLHNGFGGYVCTASQSSALLSHLLVTHPILKILTASIQNHVSSFSDCGLFTAILCCNLIENVQRLGLTPTTVIRLNKHLLSLCISYLKSETCGCRIPVDFSSTQILLCLVRSILTSKPACMLTRKETEHVSALILRAFLLTIPENAEGHIILGKSLIVPLKGQRVIDSTVLPGILIEMSEVQLMRLLPIKKSTALKVALFCTTLSGDTSDTGEGTVVVSYGVSLENAVLDQLLNLGRQLISDHVDLVLCQKVIHPSLKQFLNMHRIIAIDRIGVTLMEPLTKMTGTQPIGSLGSICPNSYGSVKDVCTAKFGSKHFFHLIPNEATICSLLLCNRNDTAWDELKLTCQTALHVLQLTLKEPWALLGGGCTETHLAAYIRHKTHNDPESILKDDECTQTELQLIAEAFCSALESVVGSLEHDGGEILTDMKYGHLWSVQADSPCVANWPDLLSQCGCGLYNSQEELNWSFLRSTRRPFVPQSCLPHEAVGSASNLTLDCLTAKLSGLQVAVETANLILDLSYVIEDKN [T57A]
decreasing interaction strength | MSRLEAKKPSLCKSEPLTTERVRTTLSVLKRIVTSCYGPSGRLKQLHNGFGGYVCTTSQSSALLSHLLVTHPILKILTASIQNHVSSFSDCGLFTAILCCNLIENVQRLGLTPTTVIRLNKHLLSLCISYLKSETCGCRIPVDFSSTQILLCLVRSILTSKPACMLTRKETEHVSALILRAFLLTIPENAEGHIILGKSLIVPLKGQRVIDSTVLPGILIEMSEVQLMRLLPIKKSTALKVALFCTTLSGDTSDTGEGTVVVSYGVSLENAVLDQLLNLGRQLISDHVDLVLCQKVIHPSLKQFLNMHRIIAIDRIGVTLMEPLTKMTGTQPIGSLGSICPNSYGSVKDVCTAKFGSKHFFHLIPNEATICSLLLCNRNDTAWDELKLTCQTALRVLQLTLKEPWALLGGGCTETHLAAYIRHKTHNDPESILKDDECTQTELQLIAEAFCSALESVVGSLEHDGGEILTDMKYGHLWSVQADSPCVANWPDLLSQCGCGLYNSQEELNWSFLRSTRRPFVPQSCLPHEAVGSASNLTLDCLTAKLSGLQVAVETANLILDLSYVIEDKN [H395R]
